Data reported in patent US20230338565A1, “ANTIBODY DRUG CONJUGATE, PREPARATION METHOD THEREFOR AND USE THEREOF” (SICHUAN KELUN-BIOTECH BIOPHARMACEUTICAL CO., LTD., priority 2020, published 2023).

Key:
[1] = target: T1, human Claudin 18.2 on cell membrane (Homo sapiens, UniProt P56856); assay: Affinity to HEK293T-Claudin 18.2 by flow cytometry; conditions: binding to HEK293T-Claudin 18.2 cells
T1 construct: expressed in transfected cells
Protocol: (§1) The affinity of 2C6.9-hz21 to human Claudin 18.2 on cell membrane was detected using HEK293T-Claudin 18.2 cells. The specific procedures were as follows: HEK293T-Claudin 18.2 cells were detached and centrifuged, followed by being washed twice with PBS. And then the cells were resuspended in PBS containing 1% BSA and were plated into a 96-well tip bottom plate at 300000 cells per well in a volume of 50 μl for 20 wells in total. […] of 2C6.9-hz21 and IMAB362 antibody were separately then added with 11 concentrations starting from 1000 nM with three-fold dilution to each well. Human IgG was served as negative control. The reactions were mixed well and incubated for 1 h at 4° C. in the dark, followed by three times of washing with PBS, the FITC-labelled anti-human Fc secondary antibody (Biolegend, 409322) was added and incubated for 0.5 h at 4° C. in the dark. Detection was performed by flow cytometry (Beckman, Cytoflex) after being washed for three times with PBS.

human Claudin 18.2 = target: T2, human Claudin 18.2 (Homo sapiens, UniProt P56856); assay: Cell ELISA on L929-Claudin 18.2 cells; conditions: binding to L929-Claudin 18.2 cells, Cellular ELISA
T2 construct: expressed in transfected cells; cells formaldehyde-fixed for the cell ELISA
Protocol: Human Claudin18.2 belongs to the tetraspanin family and has a complex structure. Cell ELISA was thus carried out to maintain the structure of Claudin18.2. The stable cell lines L929-Claudin 18.2 constructed in 6.1 were used for detection. Specifically, L929-Claudin 18.2 adherent cells were detached by 2 mM EDTA treatment. The cells were resuspended and adjusted to 2×10^5/mL and 100 μL of the resuspension was plated into a 96-well plate and incubated overnight at 37° C. The next day, the media was removed, and the plate was washed with PBS once. 100 μL/well 4% formaldehyde was added to the plate. After 30 min of incubation at room temperature, formaldehyde was removed, followed by being washed twice with PBS. Blocking buffer (PBS containing 2% BSA) was then added to the plate at 100 μL/well, and incubated at 37° C. for 2 h. After removal of blocking buffer, 100 μL/well of serially diluted antibodies (starting from 1 μM, with 4-fold dilution, for a total of 11 concentrations) were added to the corresponding wells, which were incubated at 37° C. for 2 h afterwards. The plate was washed with 250 μL PBST for 5 times, and was allowed to stand for 2 min each time. […] The OD450 nm absorbance values were obtained on a plate reader (MD, SpectraMax M2) and the results were subjected to curve fitting by Graphpad Prism. […]

[2] = tested on: HEK293T-Claudin 18.2 cells; assay: ADCC, NK cell mediated killing assay; format: cell-based, human; conditions: NK92MI-CD16a effector cells, LDH detection
Protocol: 2C6.9 belongs to IgG1 subtype and has relative strong antibody-dependent cell-mediated cytotoxicity (ADCC). NK cell mediated killing assay was used to determine the ADCC activity of 2C6.9. The specific procedures were as follows: HEK293T-Claudin 18.2 cells were harvested and centrifuged, followed by adjustment of cell density. 1×10^4/well of cells were plated on a plate and incubated overnight. The medium was removed on the next day. NK92MI-CD16a cells (Huabo Biopharm) were centrifuged, resuspended in MEMA medium and adjusted to 1×10^6/mL, then 50 μL/well cells were added to the corresponding wells. 2C6.9-hz21 and IMAB362 antibodies were diluted with MEMA medium. For HEK293T-Claudin18.2 cells, 10 antibody concentrations were tested, starting from 40 μg/mL with 5-fold dilution. For NUGC-4 cells, 11 antibody concentrations were tested, starting from 2 mg/mL with 5-fold dilution. 50 μL/well of the diluted antibodies were added to the corresponding wells and the reactions were left to stand in incubator at 37° C., 5% CO2 and incubated for 5.5 h. Lysis buffer was then added to the positive control well and incubated for another 0.5 h. 50 μL/well of Lactate Dehydrogenase (LDH) detection agent (DOJINDO LABORATORISE, CK12) were added to the wells and the absorbance at 490 nm were taken every 10 min on a microplate reader (MD, SpectraMax M2). […]

human Claudin18.2 [3] = target: T3, human Claudin18.2 (human, UniProt P56856-2 1-261); assay: cell-based or functional assay
human Claudin18.2 [4] = target: T3, human Claudin18.2; assay: cell-based or functional assay; remark: listed apart in the source
human Claudin18.2 [5] = target: T3, human Claudin18.2; assay: cell ELISA on formaldehyde-fixed L929-Claudin 18.2 cells, HRP anti-human IgG
Protocol: (§2) Human Claudin18.2 belongs to the tetraspanin family and has a complex structure. Cell ELISA was thus carried out to maintain the structure of Claudin18.2. […] The cells were resuspended and adjusted to 2×10⁵/mL and 100 μL of the resuspension was plated into a 96-well plate and incubated overnight at 37° C. The next day, the media was removed, and the plate was washed with PBS once. 100 μL/well 4% formaldehyde was added to the plate. After 30 min of incubation at room temperature, formaldehyde was removed, followed by being washed twice with PBS. Blocking buffer (PBS containing 2% BSA) was then added to the plate at 100 μL/well, and incubated at 37° C. for 2 h. After removal of blocking buffer, 100 μL/well of serially diluted antibodies (starting from 1 μM, with 4-fold dilution, for a total of 11 concentrations) were added to the corresponding wells, which were incubated at 37° C. for 2 h afterwards. The plate was washed with 250 μL PBST for 5 times, and was allowed to stand for 2 min each time. 100 μL/well of horseradish peroxidase labeled anti-Human IgG secondary antibody (HRP-anti-Human IgG, Jackson ImmunoResearch, 109-035-003) diluted 1:10000 in PBS (containing 2% BSA) was added to the plate. […] The OD450 nm absorbance values were obtained on a plate reader (MD, SpectraMax M2) and the results were subjected to curve fitting by Graphpad Prism.

human Claudin18.2 [6] = target: T3, human Claudin18.2; assay: flow cytometry on HEK293T-Claudin 18.2 cells, FITC anti-human Fc secondary antibody
Protocol: as §1, with “The” for “The affinity of 2C6.9-hz21 to human Claudin 18.2 on cell membrane was detected using HEK293T-Claudin 18.2 cells. The”

human Claudin18.2 [7] = target: T3, human Claudin18.2; assay: cell-based or functional assay; remark: listed apart in the source
human Claudin18.1 = target: T4, human Claudin18.1 (human, UniProt P56856 1-261); assay: flow cytometry on HEK293T-human Claudin 18.1 cells, FITC anti-human Fc secondary antibody
T4 construct: whole, on cells
Protocol: The specificity of candidate antibodies was detected by FACS. […] After being washed twice with PBS, the cells were resuspended with PBS containing 1% BSA. 300000 cells for each cell line were added with the candidate antibodies at a final concentration of 1000 nM, mixed well, and incubated for 1 h at 4° C., protected from light. Then the cells were washed for three times with PBS and FITC-labeled anti-human Fc secondary antibody (BioLegend, 409322) was added, followed by 0.5 h of incubation at 4° C. in the dark. Detection was performed by flow cytometry (Beckman, Cytoflex) after being washed with PBS for three times.

human Claudin18.2 [8] = target: T3, human Claudin18.2; assay: cell ELISA on L929-Claudin 18.2 cells
Protocol: as §2

Molecule | Max MFI [1] | Max signal value (OD450) (human Claudin 18.2) | Max. cytotoxicity (%) [2] | CDC activity, EC50 value (human Claudin18.2 [3]) | ADCC activity, EC50 value (human Claudin18.2 [4]) | EC50 (human Claudin18.2 [5]) | EC50 (human Claudin18.2 [6]) | 4-hour internalization ratio on NUGC-4 cells (flow cytometry) (human Claudin18.2 [7]) | binding result (human Claudin18.1) | binding result (human Claudin18.2 [8])
IMAB362: control anti-Claudin 18.2 antibody, sequences from patent CN 101312989 B [reference compound] | 156715.7 | 0.53 | 20% | – | – | – | – | – | – | –
IMAB362 (antibody, V domains shown) VH: QVQLQQPGAELVRPGASVKLSCKASGYTFTSYWINWVKQRPGQGLEWIGNIYPSDSYTNYNQKFKDKATLTVDKSSSTAYMQLSSPTSEDSAVYYCTRSWRGNSFDYWGQGTTLTVSS VL: DIVMTQSPSSLTVTAGEKVTMSCKSSQSLLNSGNQKNYLTWYQQKPGQPPKLLIYWASTRESGVPDRFTGSGSGTDFTLTISSVQAEDLAVYYCQNDYSYPFTFGSGTKLEIKR | – | – | – | 3.32 µg/mL | 0.0577 µg/mL | 0.15 nM | 8.22 nM | – | – | –
humanized antibody 2C6.9-hz21 (antibody, human IgG1, kappa, V domains shown, Humanized from murine 2C6.9M; Expressed in Expi293F cells and purified on protein A; also called 2C6.9 mAb; humanized monoclonal antibody 2C6.9) VH: QVQLQESGPGLVKPSETLSLTCTVSGFSLTRYGVSWIRQPPGKGLEWIGVIWGEGNTNYNPSLKSRVTISKDSSKSQVSLKLSSVTAADTAVYYCARVNFGNALDYWGQGTLVTVSS VL: DIVMTQSPDSLAVSLGERATINCKSSQSLLNSGNQKNYLTWYQQKPGQPPKLLIYWASTRDSGVPDRFSGSGSGTDFTLTISSLQAEDVAVYYCQNDFIFPLTFGGGTKVEIKR | – | – | – | 1.36 µg/mL | 0.0677 µg/mL | 0.12 nM | 5.77 nM | 37.8% | no binding (tested: 1000 nM) | –
humanized antibody 2C6.9-hz11 (antibody, human IgG1, kappa, V domains shown, Human IgG1 / kappa) VH: QVQLQESGPGLVKPSETLSLTCTVSGFSLTRYGVSWIRQPPGKGLEWIGVIWGDGNTNYNPSLKSRVTISKDSSKSQVSLKLSSVTAADTAVYYCARVNFGNALDYWGQGTLVTVSS VL: DIVMTQSPDSLAVSLGERATINCKSSQSLLNSGNQKNYLTWYQQKPGQPPKLLIYWASTRDSGVPDRFSGSGSGTDFTLTISSLQAEDVAVYYCQNDFIFPLTFGGGTKVEIKR | – | – | – | – | – | – | – | – | – | binds
